Experimental data published in patent US20050058639A1 (AstraZeneca / MedImmune, published 2005).
Substitutions are numbered along the chain they refer to.

T1: human GRO/MGSA (human, UniProt P09341 35-107)
T1 construct: also called hGRO/MGSA; GRO-alpha
T1 sequence (looked up): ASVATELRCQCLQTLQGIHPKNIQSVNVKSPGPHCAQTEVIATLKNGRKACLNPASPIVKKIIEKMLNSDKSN

T2: recombinant human MCP-2 (human, UniProt P80075 24-99)
T2 construct: also called rhMCP-2
T2 sequence (looked up): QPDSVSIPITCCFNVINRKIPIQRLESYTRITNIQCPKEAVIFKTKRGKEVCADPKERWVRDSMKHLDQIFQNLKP

T3: human MIP-1-alpha (human, UniProt P10147 24-92, limits assumed)
T3 construct: also called hMIP-1-alpha
T3 sequence (looked up): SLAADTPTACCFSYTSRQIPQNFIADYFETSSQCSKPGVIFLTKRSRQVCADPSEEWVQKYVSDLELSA

T4: human RANTES (human, UniProt P13501 24-91)
T4 construct: also called hRANTES
T4 sequence (looked up): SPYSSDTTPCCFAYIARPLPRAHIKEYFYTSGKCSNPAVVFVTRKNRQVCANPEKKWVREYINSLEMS

B1: anti-MCP-1 mAb 1.7.1 (antibody, human IgG2, kappa, V domains shown)
VH: QVQLVQSGAEVKKPGASVKVSCKVSGYTLTELSMHWVRQAPGKGLEWMGGFDPEDGETIYAQKFQGRVSMTEDTSTDTAYMELSSLRSEDTAVYFCATNEFWSGYFDYWGQGTLVTVSS
VL: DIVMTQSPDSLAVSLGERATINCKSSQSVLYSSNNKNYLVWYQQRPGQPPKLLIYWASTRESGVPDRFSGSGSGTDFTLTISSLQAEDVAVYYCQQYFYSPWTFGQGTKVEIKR
notes: also called 1.7.2
B2: anti-MCP-1 mAb 3.7.1 (antibody, human IgG2, kappa, V domains shown)
VH: B1 VH with A40T, G66D, S69T, F95Y, E100D, S103T, F106Y
VL: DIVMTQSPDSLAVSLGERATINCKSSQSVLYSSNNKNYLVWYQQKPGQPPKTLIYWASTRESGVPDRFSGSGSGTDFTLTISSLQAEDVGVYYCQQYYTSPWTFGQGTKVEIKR
notes: also called 3.7.2
B3: anti-MCP-1 mAb 2.3.1 (antibody, V domains shown)
VH: B1 VH with G56D, S69T, D77H, F95Y, N99H, E100D, G104A, D107Y
VL: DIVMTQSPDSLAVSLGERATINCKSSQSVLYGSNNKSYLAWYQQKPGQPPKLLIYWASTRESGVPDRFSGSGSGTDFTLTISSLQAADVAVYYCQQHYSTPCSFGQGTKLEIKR
B4: anti-MCP-1 mAb 4.8.1 (antibody, V domains shown)
VH: B1 VH with S69T, S88T, F95Y, A97T, N99D, E100D
VL: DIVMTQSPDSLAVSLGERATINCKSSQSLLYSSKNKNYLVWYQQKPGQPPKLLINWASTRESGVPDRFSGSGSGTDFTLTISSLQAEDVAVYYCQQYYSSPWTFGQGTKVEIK
B5: anti-MCP-1 mAb 4.7.1 (antibody, V domains shown)
VH: B1 VH with S69T, F95Y, N99D, E100D
VL: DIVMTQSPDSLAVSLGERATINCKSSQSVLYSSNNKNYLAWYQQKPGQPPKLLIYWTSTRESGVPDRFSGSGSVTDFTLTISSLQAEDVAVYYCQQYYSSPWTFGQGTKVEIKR
B6: anti-MCP-1 mAb 5.1 (antibody, V domains shown)
VH: EQSGGGVVQPGRSLRLSCAASGFTFSSYGMHWVRQAPGKGLEWVAVIWYDGNNKYYADSVKGRFTISRDTSKNTLYLQMNSLRAEDTAVYYCARDSSSYYYYGMDVWGQGTTVTVSS
VL: NFMLTQPHSVSESPGKTVTISCTRSSGSIASNYVQWFQQRPGSSPTTVIYEDDQRPSGVPDRFCGSIDSSSNSASLTISGLRTEDEADYYCQSYDSSNHVVFGGGTKLTVLG
B7: anti-MCP-1 mAb 1.4.1 (antibody, V domains shown)
VH: QSGPGLVKPSQTLSLTCAISGDSVSSNSAAWNWIRQSPSRGLEWLGRTYYRSKWYSDHAVSVRSRITIYPDTSKNQFSLQLNSVTPEDTAVYYCARDRISGTYVGMDVWGQGTTVTVSS
VL: DIGMTQTPLSLSVTPGQPASISCKSSQSLLYSDGKTYLYWYLQKPGQPPQHLIYEVSNRFSGVPDRFSGSGSGTDFTLKISRVEADDVGVYYCMQTIHLPLTFGGGTKVEIQR

Molecular target: T5, human monocyte chemo-attractant protein-1 (MCP-1) (human, UniProt P13500 24-99)
T5 sequence (P13500 24-99): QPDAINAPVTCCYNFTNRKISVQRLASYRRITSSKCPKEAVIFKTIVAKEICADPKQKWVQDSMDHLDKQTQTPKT
Assay: cell-based or functional assay

Point of comparison: B4, “IC50 Ca++ Flux” value 0.22 µg/mL. Against it:
- B1 — 2-fold lower, 0.11 µg/mL
- B2 — 2.3-fold lower, 0.094 µg/mL
- B3 — 1.6-fold lower, 0.14 µg/mL
- B5 — 1.8-fold higher, 0.39 µg/mL
- B6 — 16-fold higher, 3.5 µg/mL
- B7 — 2-fold lower, 0.11 µg/mL

Point of comparison: B5, “IC50 Chemotaxis” value 0.45 µg/mL. Against it:
- B1 — within 1.5-fold, 0.35 µg/mL
- B2 — 2.2-fold higher, 0.98 µg/mL
- B3 — within 1.5-fold, 0.58 µg/mL
- B4 — 1.6-fold lower, 0.29 µg/mL
- B6 — 2.9-fold higher, 1.3 µg/mL
- B7 — within 1.5-fold, 0.51 µg/mL

Molecular target: T5, human monocyte chemo-attractant …
Assay: ELISA, hybridoma supernatant on coated MCP-1; ELISA, hybridoma supernatant on plate-coated non-reduced MCP-1 (2 ug/mL)
Description: (§1) Selection of candidate antibodies for ELISA. After 14 days of culture, hybridoma supernatants were screened for MCP-1-specific monoclonal antibodies. The ELISA plates (Fisher, Cat. No. 12-565-136) were coated with 50 μl/well of MCP-1 (2 μg/mL) in Coating Buffer (0.1 M Carbonate Buffer, pH 9.6, NaHCO₃8.4 g/L), then incubated at 4° C. overnight. After incubation, the plates were washed with Washing Buffer (0.05% Tween 20 in PBS) three times. 200 μl/well Blocking Buffer (0.5% BSA, 0.1% Tween 20, 0.01% Thimerosal in 1× PBS) were added and the plates incubated at room temperature for 1 hour. After incubation, the plates were washed with Washing Buffer three times. 50 μL/well of hybridoma supernatants, and positive and negative controls were added and the plates incubated at room temperature for 2 hours.
(§2) The positive control used throughout was XMG2 MCP-1 Group 1, footpad N160-7 and the negative control was XMG2 KLH Group 1, footpad L627-6. After incubation, the plates were washed three times with Washing Buffer. […] In the secondary screen, three sets of samples (positives in first screening) were screened, one set for hIgG detection, one set for hKappa detection, and one set for hlambda detection. After incubation, the plates were washed three times with Washing Buffer. 100 μL/well of TMB (BioFX Lab. Cat. #TMSK-0100-01) were added and the plates allowed to develop for about 10 minutes (until negative control wells barely started to show color), then 50 μL/well stop solution (TMB Stop Solution (BioFX Lab. Cat. #STPR-0100-01) were added and the plates read on an ELISA plate reader at wavelength 450 nm. The OD readings from the positive wells are presented in Table 9.

Point of comparison: B2, “ELISA OD-MCP-1” value 4 OD450. Against it:
- B1 — lower, 3.52 OD450
- B3 — lower, 3.88 OD450

Molecular target: T5, human monocyte chemo-attractant …
Assay: ELISA, hybridoma supernatant on coated MCP-1
Description: as §1, §2

Point of comparison: B5, “ELISA OD-MCP-1” value 3.84 OD450. Against it:
- B4 — higher, 4 OD450
- B6 — higher, 4 OD450
- B7 — higher, 4 OD450

Molecular target: T5, human monocyte chemo-attractant …
Assay: ELISA, coated antigen; ELISA, purified clone 1:50 on coated hMCP-1 (2 ug/mL), cross-reactivity panel
Description: (§3) Determining cross-reactivity of anti-MCP-1 antibodies with other chemokines. ELISA plates (Fisher Cat. No. 12-565-136) were coated with 50 μl/well of MCP-1, MCP-2, MCP-3, MCP-4, RANTES, GRO-alpha, MIP-1 alpha, eotaxin, rat MCP-1 and mouse JE (2 μg/ml) in coating buffer (0.1 M carbonate buffer, pH 9.6, NaHCO₃ 8.4 g/L, then incubated at 4° C. overnight. After incubation, the plates were washed with washing buffer (0.05% Tween 20 in PBS) three times. 200 μL/well blocking buffer (0.5% BSA, 0.1% Tween 20, 0.01% Thimerosal in 1×PBS) were added and the plates incubated at room temperature for 1 hour. After incubation, the plates were washed with washing buffer three times. 50 μL/well of hybridoma supernatants, and positive and negative controls (positive control was anti-MCP-1 antibody purchased from R&D Sciences, and negative control was an antibody to Keyhole Limpet Hemocyanin produced at Abgenix) were added and the plates incubated at room temperature for 2 hours. After incubation, the plates were washed three times with washing buffer. […] After incubation, the plates were washed three times with washing buffer and 100 μL/well of TMB (BioFX Lab. Cat. #TMSK-0 100-01) was added and the plates allowed to develop for about 10 minutes.

Point of comparison: B1, “ELISA OD” value 1.17 OD450. Against it:
- B2 — higher, 1.28 OD450

Molecular target: T5, human monocyte chemo-attractant …
Assay: Biacore, mAb immobilized, MCP-1 injected; Biacore, 25 C, native MCP-1 injected over immobilized mAb
Description: Determination of anti-MCP-1 antibody affinity using Biacore analysis. The antibody/MCP-1 interaction analysis was performed at 25° C. using two CM5 chips docked in Biacore 3000 optical biosensors. Individual flow cells on each chip were activated with a 7-minute injection of NHS/EDC, carbohydrazide was coupled through the NHS ester using a 7-minute injection, and the residual activated groups were blocked with a 7-minute injection of ethanolamine. The monosaccharide residues of each antibody were oxidized using 1 mM sodium metaperiodate in 100 mM sodium acetate, pH 5.5 at 4° C. for 30 minutes. The oxidized antibody was desalted into 100 mM sodium acetate, pH 5.0, to couple the antibody to the carbohydrazide-modified surface. The mAb surfaces were stabilized by reducing the hydrazone bond with 0.1 M sodium cyanoborohydride. The antigen/antibody interaction was tested by injecting 0, 0.049, 0.15, 0.4, 1.3, 4 and 12 nM of MCP-1 (Peprotech, N.J.) in running buffer (10 mM HEPES, 150 mM NaCl, 0.005% surfactant, 200 μg/ml BSA, pH 7.4). The surfaces were regenerated with a 12-second pulse of 15 mM H₃PO₄. The antigen/antibody interaction was tested by injecting duplicate antigen samples diluted in running buffer (10 mM HEPES, […], 0.005% surfactant, 200 μg/mL BSA, pH 7.4), in a 300-fold concentration range. The surfaces were regenerated with a 12-second pulse of 15 mM H₃PO₄. To determine the kinetics of each interaction, the data sets were fit globally to a 1:1 interaction model that included a parameter for mass transport.

Point of comparison: B1, Kd 4.9 pM. Against it:
- B2 — within 1.5-fold, 4.8 pM
- B3 — 20-fold higher, 96 pM

Molecular target: T1, human GRO/MGSA
Assay: ELISA, coated antigen
Description: as §3

Point of comparison: B6, “ELISA OD” value 0.044 OD450. Against it:
- B1 — lower, 0.041 OD450
- B2 — higher, 0.045 OD450
- B3 — higher, 0.062 OD450
- B4 — lower, 0.042 OD450
- B5 — higher, 0.046 OD450
- B7 — the same, 0.044 OD450

Molecular target: T2, recombinant human MCP-2
Assay: ELISA, coated antigen
Description: as §3

Point of comparison: B5, “ELISA OD” value 0.042 OD450. Against it:
- B1 — higher, 0.044 OD450
- B2 — higher, 0.043 OD450
- B3 — higher, 0.052 OD450
- B4 — lower, 0.041 OD450
- B6 — higher, 0.051 OD450
- B7 — higher, 0.046 OD450

Molecular target: T3, human MIP-1-alpha
Assay: ELISA, coated antigen
Description: as §3

Point of comparison: B2, “ELISA OD” value 0.049 OD450. Against it:
- B1 — lower, 0.04 OD450
- B3 — higher, 0.067 OD450
- B4 — lower, 0.041 OD450
- B5 — lower, 0.046 OD450
- B6 — lower, 0.043 OD450
- B7 — lower, 0.041 OD450

Molecular target: T4, human RANTES
Assay: ELISA, coated antigen
Description: as §3

Point of comparison: B3, “ELISA OD” value 0.055 OD450. Against it:
- B1 — lower, 0.039 OD450
- B2 — higher, 0.067 OD450
- B4 — lower, 0.044 OD450
- B5 — lower, 0.046 OD450
- B6 — lower, 0.043 OD450
- B7 — lower, 0.046 OD450

Molecular target: T6, recombinant human MCP-4 (human, UniProt Q99616 24-98, limits assumed)
T6 construct: also called rhMCP-4
T6 sequence (Q99616 24-98 limits assumed): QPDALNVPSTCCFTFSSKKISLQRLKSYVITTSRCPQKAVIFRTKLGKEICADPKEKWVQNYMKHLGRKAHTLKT
Assay: ELISA, coated antigen
Description: as §3

Point of comparison: B2, “ELISA OD” value 0.048 OD450. Against it:
- B1 — lower, 0.041 OD450
- B3 — higher, 0.064 OD450
- B4 — lower, 0.039 OD450
- B5 — lower, 0.044 OD450
- B6 — lower, 0.043 OD450
- B7 — lower, 0.045 OD450

Molecular target: T7, recombinant human MCP-3 (human, UniProt P80098 24-99)
T7 construct: also called rhMCP-3
T7 sequence (P80098 24-99 limits assumed): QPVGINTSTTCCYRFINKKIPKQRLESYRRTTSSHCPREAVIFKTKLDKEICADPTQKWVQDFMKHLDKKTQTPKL
Assay: ELISA, coated antigen
Description: as §3

Point of comparison: B5, “ELISA OD” value 0.046 OD450. Against it:
- B1 — higher, 0.053 OD450
- B2 — higher, 0.048 OD450
- B3 — higher, 0.059 OD450
- B4 — lower, 0.043 OD450
- B6 — higher, 0.05 OD450
- B7 — higher, 0.049 OD450

Molecular target: T5, human monocyte chemo-attractant …
Assay: ELISA, coated antigen
Description: as §3

Point of comparison: B7, “ELISA OD” value 0.738 OD450. Against it:
- B4 — higher, 1.14 OD450
- B5 — higher, 0.744 OD450
- B6 — lower, 0.521 OD450

Molecular target: T8, recombinant mouse JE/MCP-1 (mouse, UniProt P10148 24-148)
T8 construct: also called rmJE/MCP-1
T8 sequence (P10148 24-148 limits assumed): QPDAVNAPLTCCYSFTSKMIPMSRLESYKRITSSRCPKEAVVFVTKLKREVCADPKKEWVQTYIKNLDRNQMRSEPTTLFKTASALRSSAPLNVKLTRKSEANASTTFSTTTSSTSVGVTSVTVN
Assay: ELISA, coated antigen
Description: as §3

Point of comparison: B6, “ELISA OD” value 0.044 OD450. Against it:
- B1 — lower, 0.041 OD450
- B2 — higher, 0.046 OD450
- B3 — higher, 0.054 OD450
- B4 — lower, 0.042 OD450
- B5 — lower, 0.042 OD450
- B7 — lower, 0.042 OD450

Molecular target: T9, human eotaxin (human, UniProt P51671 24-97)
T9 construct: also called hEotaxin
T9 sequence (P51671 24-97 limits assumed): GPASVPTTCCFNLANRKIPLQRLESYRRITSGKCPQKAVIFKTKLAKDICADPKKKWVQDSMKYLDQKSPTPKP
Assay: ELISA, coated antigen
Description: as §3

Point of comparison: B6, “ELISA OD” value 0.042 OD450. Against it:
- B1 — lower, 0.04 OD450
- B2 — higher, 0.043 OD450
- B3 — higher, 0.045 OD450
- B4 — higher, 0.043 OD450
- B5 — the same, 0.042 OD450
- B7 — higher, 0.043 OD450

Molecular target: rat MCP-1 (rat, UniProt P14844 24-148)
Sequence (P14844 24-148 limits assumed): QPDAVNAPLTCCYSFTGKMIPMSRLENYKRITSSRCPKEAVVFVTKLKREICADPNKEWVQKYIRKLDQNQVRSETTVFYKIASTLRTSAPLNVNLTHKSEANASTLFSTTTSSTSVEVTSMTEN
Assay: ELISA, coated antigen
Description: as §3

Point of comparison: B7, “ELISA OD” value 0.05 OD450. Against it:
- B1 — lower, 0.042 OD450
- B2 — lower, 0.048 OD450
- B3 — higher, 0.058 OD450
- B4 — higher, 0.091 OD450
- B5 — higher, 0.062 OD450
- B6 — higher, 0.054 OD450
